To fix the notation:
B1: RA058 (nucleic acid)
DNA: GCGCGTCCTGGATTCGCGGAAACGCGTACATCCAGAGAATACCAGCATCGTCTTGATGCCCTTGGAAGTCTCGCTGACGAGTCCCAAATAGGACGAAACGCGC
modifications: expressed or natural sequence
B2: RA065 (nucleic acid)
DNA: GCTGTCACCGGAATACCAGCATCGTCTTGATGCCCTTGGAAGTCCGGTCTGATGAGTCCCAGAAGGACGAAACAGC
modifications: expressed or natural sequence
B3: RA063 (nucleic acid)
DNA: GCGCGTCCTGGATTCAGTGATACCAGCATCGTCTTGATGCCCTTGGCAGCACTGCGGAAACGCGTACATCCAGCTGACGAGTCCCAAATAGGACGAAACGCGC
modifications: expressed or natural sequence
B4: RA064 (nucleic acid)
DNA: GCGCGTCCTGGATTCGCGGAAACGCGTACAGAATACCAGCATCGTCTTGATGCCCTTGGAAGTCTATCCAGCTGACGAGTCCCAAATAGGACGAAACGCGC
modifications: expressed or natural sequence
B5: RA060 (nucleic acid)
DNA: GCGCGTCCTGGATTCGCGGAAACGCGTACATCCAGCTGACGAGTCCCAAATAGGACGAAACGCGGGAATACCAGCATCGTCTTGATGCCCTTGGAAGTCCC
modifications: expressed or natural sequence
B6: RA006 (nucleic acid)
DNA: GCGCGTCCTGGATTCGCGGAAACGCGTACATCCAGCTGACGAGTCCCAAATAGGACGAAACGAGTGATACCAGCATCGTCTTGATGCCCTTGGCAGCACTCGC
modifications: expressed or natural sequence
B7: RA067 (nucleic acid)
DNA: GCGCGTCCTGGATTCGCGGAAACGCGTACATCCAGTGATACCAGCATCGTCTTGATGCCCTTGGCAGCACTAGCTGACGAGTCCCAAATAGGACGAAACGCGC
modifications: expressed or natural sequence
B8: RA061 (nucleic acid)
DNA: GCGCGTCCTGGATTCGCGGAAACGCGTACATCCAGCTGACGAGTCCCAAATAGGACGAAACGCGCGGAATACCAGCATCGTCTTGATGCCCTTGGAAGTCC
modifications: expressed or natural sequence
B9: RA066 (nucleic acid)
DNA: GCGCGTCCTGGATTCGCGGAAAGAATACCAGCATCGTCTTGATGCCCTTGGAAGTCTACGCGTACATCCAGCTGACGAGTCCCAAATAGGACGAAACGCGC
modifications: expressed or natural sequence
B10: RA059 (nucleic acid)
DNA: GCGCGTCCTGGATTCCCGGAATACCAGCATCGTCTTGATGCCCTTGGAAGTCCGGGCGGAAACGCGTACATCCAGCTGACGAGTCCCAAATAGGACGAAACGCGC
modifications: expressed or natural sequence
B11: RA062 (nucleic acid)
DNA: GCGCGTCCTGGATTCGCGGAAACGCCCGGAATACCAGCATCGTCTTGATGCCCTTGGAAGTCCGGGTACATCCAGCTGACGAGTCCCAAATAGGACGAAACGCGC
modifications: expressed or natural sequence

The subject of this data set is Renilla luciferase RNA. Nature of the data set: Barcoded aptazyme variant library screen: un-cleaved Renilla luciferase RNA by barcode read counts, HEK293-T cells. The data set is classed as cell-based. The note with it: un-cleaved Renilla luciferase RNA, HEK293-T cells cultured with 1 mM theophylline (ON) over without theophylline (OFF); barcode read counts, triplicate. In outline:
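Aptazyme variants (seven theophylline aptamers inserted after each T3H48 ribozyme nucleotide, 9-nt barcoded) cloned into the 3′ UTR of Renilla luciferase in psiCHECK-2; cells cultured ± theophylline, in triplicate. RNA and DNA barcodes amplified and sequenced; normalized read counts gave un-cleaved RNA fraction and ON/OFF fold-change.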
As for B1, the “Fold change in RNA expression between the ON state and the OFF state” value is recorded as 2.0 fold.
Under B2 stands 1.9 fold; under B3, 1.9 fold; under B4, 1.9 fold.
Under B5 stands 1.9 fold; under B6, 5.0 fold.
Under B7 stands 1.8 fold; under B8, 1.9 fold.
In the case of B9, the “Fold change in RNA expression between the ON state and the OFF state” value is 1.9 fold.
Under B10 stands 1.9 fold; under B11, 1.9 fold.

The values above are taken from US20260167959A1, “APTAZYME-BASED REGULATABLE GENE EXPRESSION SYSTEMS” (REJUVENATE BIO INC, priority 2022, published 2026).
